# What was measured:
# Format in all cases: physicochemical
# [1] = Scale-up nanosuspension, particle size by dynamic light scattering; conditions: for % Pd: normalized polydispersity, scale-up; for % Pd / Average Radius: 100 mg/mL, DLS; for Average Radius: scale-up batch, average of 10 acquisitions, 25 °C, ± SD
# Method: A 4 mL clear glass vial was used as a scale-up container. […] The vial was then placed on a Resodyn LabRAM II Resonant Acoustic mixer and milled at 50 G acceleration for 2 h. The resulting nanosuspension was recovered by using a syringe equipped with an 18 G needle.
# (§1) After milling, a 5 μL aliquot of the nanosuspension sample was taken and diluted in 995 μL of D.I. water for analysis using a Wyatt DynaProTM Plate Reader II (Waters Corporation, Santa Barbara, CA, USA) dynamic light scattering instrument. A 30 μL aliquot of the diluted suspension was dispensed into a Corning® low-volume black polystyrene 384-well plate for analysis. The particle size of each sample was reported as an average of 10 acquisitions with an acquisition time of 5 s at 25 °C. Autocorrelation curves were fitted using either the cumulants or regularization method, and the average particle radius and diameters D50 and D90 were obtained and reported along with their standard deviations. The normalized polydispersity (%Pd) was calculated as the polydispersity divided by the estimated hydrodynamic radius from the cumulants fit of the autocorrelation function multiplied by 100.
# [2] = Particle size of nanosuspensions on storage (dynamic light scattering); conditions: DLS
# Method: as §1
# [3] = Physical stability (monomer content) by size-exclusion chromatography; conditions: both formulations (PVP K29-32/SDS, HPC-SL/SDS), 28 days, 4 °C, RT and 37 °C; no higher-order oligomers
# Method: An Agilent 1290 Infinity II (Agilent Technologies, Santa Clara, CA, USA) was used for chromatographic analysis. Data were acquired and processed using Empower 3 software (Waters, Milford, MA, USA). For all three peptides (GNE-A, cyclosporin A, and insulin), separations were performed in an Xbridge BEH125 SEC column ([…], 7.8 × 150 mm) for physical stability analysis. Isocratic method was applied in which 80% of the 5 mM phosphate buffer at pH 7 in acetonitrile was used as the mobile phase. The injection volume was 8 μL and the column temperature was 30 °C.
# [4] = Nanomilling screen (resonant acoustic milling), particle size by dynamic light scattering; conditions: DLS; for Average Radius: nanomilling screen, milled at 100 mg/mL in water, 50 G, 2 h, average of 10 acquisitions, 25 °C, ± SD; for % Pd: normalized polydispersity, screen, 100 mg/mL
# Method: A UV-Star clear, flat-bottom 96-well plate was used as a high-throughput mixing container, as described previously. […] Each well plate was sealed with a Thermo Fisher Scientific ALPS 50 V Manual Heat Sealer (Thermo Fisher Scientific Inc., Waltham, MA, USA). Each sealed well plate was then placed on a Resodyn LabRAM II Resonant Acoustic mixer (Resodyn Acoustic Mixers, Butte, MT, USA) and milled at 50 G acceleration for 2 h.
# as §1
# [5] = 25% HPC-SL, 1% SDS (wt% to peptide)
# [6] = 25% PVP K29-32, 1% SDS (wt% to peptide)
# [7] = 25% Pluronic F127 (wt% to peptide)
substance,measurement,setting,value
Insulin (recombinant human) [Insulin Monomer],average radius of the nanoparticles,"[1]; both formulations (HPC-SL/SDS and PVP K29-32/SDS), screen and scale-up batch",110–130 nm
same,% Pd,[1]; [5],33.6%
same,% Pd,[1]; [6],19.9%
same,Average Radius,[1]; [5],135 ± 14 nm
same,Average Radius,[1]; [6],121 ± 5 nm
same,particle size on storage,"[2]; insulin nanosuspension with HPC-SL/SDS, 4 °C and room temperature, up to 1 month",some particle growth
same,particle size on storage,"[2]; insulin nanosuspension with HPC-SL/SDS, 37 °C, up to 1 month",significant aggregation
same,particle size on storage,"[2]; insulin nanosuspension with PVP K29-32/SDS, 28 days at 4 °C or room temperature",No significant particle size growth
same,particle size on storage,"[2]; insulin nanosuspension with PVP K29-32/SDS, up to a month at 37 °C",remained in the accepted nano-scale range
same,insulin monomer concentration (SEC),[3],remains quantitative
same,Average Radius,[4]; [5],130 ± 4 nm
same,Average Radius,[4]; [6],112 ± 2 nm
same,Average Radius,[4]; [7],419 ± 24 nm
same,Average Radius,[4]; 25% Tween 80 (wt% to peptide),903 ± 124 nm
same,% Pd,[4]; [7],14.6%
same,% Pd,[4]; 25% Tween 80 (wt% to peptide),Multimodal
